Source: the supplement of paper PMC12042874
± gives the uncertainty stated by the source.

Test: amyloid nucleation score (Sup35N fusion, yeast selection) (log enrichment); library NNK2; higher = more nucleation; inactive = no reads after selection
Method in brief: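 Random libraries were run with three technical output replicates. In each, psi-negative yeast expressing Sup35N fused to peptides of 20 random codons were induced 24 hours with 100 μM copper sulfate and grown 7 days at 30°C on medium lacking adenine and uracil, and input and output plasmid inserts were Illumina-sequenced. The nucleation score is the DiMSum log enrichment of output over input reads, centred on the mode score of non-aggregating sequences, and sequences under 100 input reads were excluded.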

Substance	amyloid nucleation score
PSRPCGLRELAYADSAKQLW	1.15 ± 0.34
PSVSRLIESNFCSSIRFFTH	-1.04 ± 0.64
PTAVNSTMYSMYRTGNL	-0.294 ± 0.34
PTDHSTEVSLRFCCRGVSEL	-0.403 ± 0.46
PTGCLMICNSFVIDSVRRRP	7.812 ± 0.032
PTQVSDLDNLTDCPRGVLPC	-0.735 ± 0.48
PVAQTLAVTFNY	1.62 ± 0.23
PVGFDHNF	-0.451 ± 0.56
PVKRQGSSAANVPVVW	0.444 ± 0.44
PVLFYSLYIVNVNTLYMSSG	7.857 ± 0.051
PVLIVLYDIGSCKERKE	0.134 ± 0.55
PVRSRWPFSSSLAAVTTYRV	1.26 ± 0.41
PVWKVERRNSHLLKDIGNSI	0.325 ± 0.57
PVYRACILIDM	3.18 ± 0.054
PWPYIWSRCSQTDTVSCEHS	-0.212 ± 0.33
PYGFRVFTLWMLKRDSS	0.92 ± 0.57
PYNMVVYLGLLSRC	0.919 ± 0.17
PYQMGSYKLACVQKRPWV	0.929 ± 0.58
PYRLHMCCWEPLRSMLFMSF	1.03 ± 0.31
PYSVTEHICGIWLVWCIVGS	-0.418 ± 1.1
PYYYRLDFWHHNKKYNFGYY	-1.16 ± 1.1
QAGALFDKRQGLRYGWVVSM	-0.641 ± 0.41
QCFIWSHRVIVGFHGLGLSA	-0.02 ± 0.79
QCGSSMFRMPVLNWTA	0.734 ± 0.81
QCKVQCKEWVYNVFAKLQDS	-0.927 ± 1.1

Substance	amyloid nucleation score
QCSHI	-0.193 ± 0.28
QCVGRASCANSVALYLCSVA	0.06 ± 0.35
QCVVTVCDRL	1.73 ± 0.13
QDMQLVIYWSYKLYQVFLRA	-0.357 ± 1.1
QDRVFYIAYVNNVS	5.606 ± 0.04
QDVGNKLKIWANITCARLWY	-0.067 ± 0.65
QDVSYPSWYPGAFC	-0.675 ± 1.1
QEELSWSS	0.131 ± 0.25
QETFDFCM	-1.65 ± 0.64
QEVFSN	-0.849 ± 1.1
QFDAWAYMDRTPHGDSYRAA	0.237 ± 0.65
QFLAIFCSIT	7.684 ± 0.043
QFNFCKLAGQPLMFEFIDGV	5.58 ± 0.059
QFNYHNLNLTNFKSLCASTD	0.019 ± 0.61
QFPTCVHKPSCWDF	0.291 ± 0.5
QGCPFWYNYVLVYSVSGGIS	2.36 ± 0.14
QGELYRSANLLFVAEVSSWR	0.561 ± 0.64
QGKNAFAGLGYMSHKRRMWG	0.686 ± 0.39
QGLGTRLRDRLTVYCRFTAF	-0.69 ± 0.61
QGRLSPY	inactive
QGSKDRSYINKYRDRFCLTD	-0.304 ± 1.1
QGTQWFLLKVSAIVKQLRWT	-0.317 ± 0.79
QHLFFIYSCYTKLGGTLAGE	0.746 ± 0.2
QHSKD	-1.71 ± 0.77
QHYLKPAMARQSLKGIFDQD	-0.595 ± 0.61

Substance	amyloid nucleation score
QIASYDFCHRVGRMGPTVCV	-0.165 ± 0.54
QILNGSAY	-0.899 ± 0.3
QILPWGVSMEKL	-0.492 ± 0.41
QIMLAGLRSLDLTVDRTFNS	inactive
QIRPLRKRELYSW	2.64 ± 0.066
QKKLDLQ	-0.673 ± 1
QKLIRWCVKLG	4.24 ± 0.062
QKMRPNIKVFVYKNVGYNWC	8.562 ± 0.054
QKYRVL	-0.611 ± 0.32
QKYWCDFSNK	inactive
QLDRCLILPWTFSWCMDCVL	4.92 ± 0.053
QLHSLKKKRKY	-0.625 ± 0.28
QLKSFR	inactive
QLLRCNRRSKMLDR	-0.156 ± 0.76
QLNAVDMAKPVVGLFREQSY	-0.15 ± 0.39
QLPFWGWNCMAKLTVTLHSR	1.22 ± 0.29
QLVGDELMRCSNGAVDKNVA	1.75 ± 0.24
QLWSAWWHTVKKTGRRWWHR	0.921 ± 0.19
QMCIVDTNGRN	0.861 ± 0.6
QMNVSTYSCNLD	0.044 ± 1.1
QMTLVHK	1.67 ± 0.39
QNCSHGSLCG	-0.022 ± 0.25
QNKSIDSHAVGGIRVDDYRR	-0.088 ± 0.31
QNLSSLFKVYGTSSC	-0.953 ± 0.38
QQHYLEEPDDESLVRGCRHW	-0.039 ± 0.54

Substance	amyloid nucleation score
QQVQNAVCGWESYCSQLNRR	-0.241 ± 0.48
QRCISGNTNSVCRLEYRWLM	0.396 ± 0.44
QRLVSLYFRLSDGHMD	3.3 ± 0.06
QRPAGYHQTLSVARQRLRPD	-0.73 ± 0.76
QRVSRYNLLRARPGKIAEHF	inactive
QSFNVCCWLGEMDVLYSSIT	8.997 ± 0.038
QSGFEVSCLSDMDSCYRSRN	0.509 ± 0.31
QSLSSYHLNFSALRSVPWP	0.043 ± 0.38
QSLSTKRRSVFFAGHQARGK	-0.42 ± 0.64
QSQSSNCYDFIRTNDRKSIC	inactive
QSRQFLSVYFYLFFLFFSFL	inactive
QSVYFILNNFKWFPGSTGM	7.062 ± 0.048
QSYMSGKYVVLVQRGEVFSF	-1.21 ± 0.49
QTFDYW	0.256 ± 0.74
QTPIGK	-0.66 ± 1.1
QVCDRILTWSRLPLSISRVR	0.062 ± 0.79
QVKFLRDFEGFCMMMKHSSR	-0.395 ± 0.26
QVLVWQHMGRSTVLMLY	-0.58 ± 0.55
QVSLMKVGWITMTPLGLHSL	4.03 ± 0.069
QVVEYN	-0.047 ± 0.33
QVWSFDGCS	-0.15 ± 0.4
QWLKTVSLS	0.449 ± 0.8
QWMRSWNDTGRAES	2.13 ± 0.1
QWMVLQSDRGAEMIARA	1.29 ± 0.2
QWRFGRG	1.16 ± 0.26

Substance	amyloid nucleation score
QWWRYS	1.17 ± 0.41
QYSYGWHLRTIRIRRTCTGS	1.15 ± 0.31
RAACFSAAHRTDWTWPDGDM	2.49 ± 0.19
RALLCGSDVSKRNHGRSFVF	0.05 ± 1
RALLRFMLWFCEIPD	0.94 ± 0.74
RALVD	-0.548 ± 1.1
RAMHQDSVFVRWVEPPYCWC	-0.024 ± 1
RAPVSWRLK	0.267 ± 0.42
RASANYRSSYFERSPDVVRE	3.63 ± 0.14
RAVDDYRE	0.88 ± 0.3
RCIDSVLIMHITYFAAFGKL	5.08 ± 0.099
RCIYWHVTVIFIMDIWVRTY	0.415 ± 0.17
RCKCNAIEVT	0.565 ± 0.2
RCLVREISNPDGSDSIIWLR	-0.574 ± 0.55
RCNMLDRYPSVGRNPVLMVV	0.063 ± 1.1
RCQTFLGKETPSFYRKIVKF	-1.02 ± 0.55
RCSGVP	0.908 ± 0.23
RCTGDLGRVARFWYETVKLN	-0.066 ± 0.39
RCVGNCMMSLRAEYD	2.8 ± 0.079
RCVTERFPDM	0.408 ± 0.5
RCVYNTKVREMPVLVGLRQD	inactive
RDIRWIYEDTLISSGIWRSL	2.62 ± 0.11
RDISIMHRRRMNGLFNY	inactive
RDMVTVVCTWEKWCCRFPDL	0.063 ± 0.21
RDNFLNEY	-0.953 ± 0.36

Substance	amyloid nucleation score
RDREIVQSLLHVLSQASLFV	-0.456 ± 0.35
RDSKFRMPLKWKAFFMGVER	1.17 ± 0.38
RDSQWGLSRKDFSHACVLTY	-0.408 ± 0.48
REALDHWVDRVTVRWVRICI	-0.474 ± 0.35
RECDKEFRQSSSCIDRRLGM	-0.156 ± 0.8
REFLCCGN	3.36 ± 0.075
RERCC	inactive
RESARRKAYLLSKNGSNWLH	-0.249 ± 0.5
RFCAMTYERLCVFVIF	0.197 ± 0.4
RFCRHRMRGILP	1.06 ± 0.17
RFEFIVMSLW	3.19 ± 0.06
RFEHGSTFGDDKL	-1.26 ± 1.1
RFMHGTTCHTKYHRHLSTET	0.766 ± 0.23
RFNCHFIWNIRPEFRMNNDK	5.61 ± 0.057
RFNMMKSKQMELSN	-0.504 ± 0.46
RFSCAEYVPVMT	0.298 ± 0.56
RFTALADGYRFTLSLGIVSG	2.28 ± 0.12
RFVVWRHFSWIATMLSTIPV	1.13 ± 0.35
RGAAGILFTSLIFMSVYALI	-0.104 ± 0.49
RGEHRERCGDIGRYGMGRRA	1.27 ± 0.14
RGIFSSVWLLRSIMFGVGSP	-0.016 ± 0.23
RGINDILRFKS	0.494 ± 0.44
RGNMTLIETALAIVQSFSNH	9.064 ± 0.035
RGREL	-1.66 ± 0.54
RGSGSVMNSGYEAASRRLGG	-0.12 ± 0.46

Substance	amyloid nucleation score
RGSRVLSFILLRISNWIFQD	-0.239 ± 0.76
RGYLTAT	-0.134 ± 0.53
RHFYRSKMAMVYGFHTAFTG	-0.582 ± 0.34
RHGVMLGAVGVGSNDGSFLS	2.29 ± 0.28
RHSHRARKVGEWGNLCLVEK	0.26 ± 0.21
RHTSMSGCMTVIMTGCEIPR	1.13 ± 0.39
RIDVAI	-0.457 ± 0.76
RIFVIVAGNYYFLAGFGYLA	-1.74 ± 0.64
RIGCRRPRFDNEQQWARS	5.62 ± 0.093
RIGMPMMSAYTMGLVTDRFT	1.06 ± 0.4
RIKCRTLLGQFLMAVVIEMY	0.309 ± 0.31
RIKGSGGPNVLGWFRMVLCS	0.284 ± 1.1
RILFNRS	0.107 ± 0.4
RILFRGHSVLKNWF	-1.86 ± 0.49
RILLLDLRYYCTTP	inactive
RINNS	-1.44 ± 0.45
RINQLLTPLTWQERGP	3.38 ± 0.06
RISIPS	inactive
RIVGRSFYMQFGRVWDFLRS	-0.546 ± 0.61
RIVMLGFVN	-1.44 ± 0.54
RIYNYWTIARKFFRV	-1.24 ± 0.55
RIYRRNQWVPGGDYSKGINL	-0.892 ± 0.76
RKCFDRRDYIPKIGQIRMSC	-0.48 ± 0.39
RKCSLVAEWTGLLLNSFVHN	1.19 ± 0.45
RKDLEVLNGLRICMVGSAPV	-0.055 ± 1.1
